# Measurements taken from publication PMC6317279.
# Target: FLAG-tagged CRTC3 S391A (mouse) (UniProt Q91X84)
# Chain of UniProt Q91X84 (Q91X84 whole entry S391A): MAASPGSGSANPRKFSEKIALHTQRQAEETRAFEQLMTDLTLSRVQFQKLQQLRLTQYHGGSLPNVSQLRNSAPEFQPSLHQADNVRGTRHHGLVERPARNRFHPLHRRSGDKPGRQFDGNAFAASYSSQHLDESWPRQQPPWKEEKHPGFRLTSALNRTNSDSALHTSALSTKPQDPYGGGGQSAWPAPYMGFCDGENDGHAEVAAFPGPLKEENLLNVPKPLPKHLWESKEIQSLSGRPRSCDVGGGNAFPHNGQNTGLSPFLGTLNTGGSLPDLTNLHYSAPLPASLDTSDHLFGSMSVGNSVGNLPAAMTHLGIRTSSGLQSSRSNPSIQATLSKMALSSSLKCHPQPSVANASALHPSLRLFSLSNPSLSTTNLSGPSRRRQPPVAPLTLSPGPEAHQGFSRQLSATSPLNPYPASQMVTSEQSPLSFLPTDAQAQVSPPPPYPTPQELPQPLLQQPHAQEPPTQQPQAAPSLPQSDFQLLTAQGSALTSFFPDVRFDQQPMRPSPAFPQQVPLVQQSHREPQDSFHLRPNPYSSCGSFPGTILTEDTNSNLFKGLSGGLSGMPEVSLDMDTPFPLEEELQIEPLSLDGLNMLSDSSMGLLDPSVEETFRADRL
substance,measurement,value
"B55 PP2A holoenzyme (protein phosphatase 2A: catalytic, scaffold and 55-kDa regulatory B subunits) (from UniProt P67775 1-309; P30153 1-589; P63151 1-447) (complex)","transient CRE luciferase-based (EVX-Luc) reporter assay, basal transcriptional activity of S391A mutant CRTC3 against WT CRTC3",2 fold lower
